How the values were obtained:
ftsz_ecoli ftsZ [1] = target: ftsz_ecoli ftsZ (UniProt P0A9A6)
ftsz_ecoli ftsZ [2] = target: ftsz_ecoli ftsZ (UniProt P0A9A6); remark: listed apart in the source

ftsz_ecoli ftsZ, sequence (P0A9A6 whole entry): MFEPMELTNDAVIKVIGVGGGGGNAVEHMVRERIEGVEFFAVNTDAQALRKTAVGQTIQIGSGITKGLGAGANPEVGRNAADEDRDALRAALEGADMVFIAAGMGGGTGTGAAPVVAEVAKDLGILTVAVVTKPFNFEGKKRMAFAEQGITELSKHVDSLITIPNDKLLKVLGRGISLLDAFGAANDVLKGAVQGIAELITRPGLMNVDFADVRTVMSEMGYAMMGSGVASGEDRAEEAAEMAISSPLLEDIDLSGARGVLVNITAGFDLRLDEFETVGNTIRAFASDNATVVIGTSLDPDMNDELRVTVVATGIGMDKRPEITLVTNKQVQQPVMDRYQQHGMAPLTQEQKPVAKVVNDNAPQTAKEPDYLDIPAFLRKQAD

Substance: Cell division protein ZapC (Escherichia coli (strain K12)), P75862 L22P
- effect of a mutation on the interaction (ftsz_ecoli ftsZ [1]): decreasing interaction strength
- effect of a mutation on the interaction (ftsz_ecoli ftsZ [2]): disrupting interaction
